This note sets out measurements from publication PMC9652393, “Differential impact of ubiquitous and muscle dynamin 2 isoforms in muscle physiology and centronuclear myopathy” (Nature Communications, 2022).

B1: Human SH3 domain of BIN1 with Glutathione S-transferase (GST) tag (domain or fragment, UniProt O00499 520-593, looked up)
chain: GFMFKVQAQHDYTATDTDELQLKAGDVVLVIPFQNPEEQDEGWLMGVKESDWNQHKELEKCRGVFPENFTERVP
notes: amphiphysin 2 (BIN1), human, SH3 domain; The methods also describe cutting off the GST tag with PreScission on the beads; also called GST-SH3; GST-SH3 of BIN1
B2: Human ubiquitous dynamin 2 isoform (Ub-DNM2), recombinant (natural protein, UniProt P50570-2 1-866, looked up)
chain: MGNRGMEELIPLVNKLQDAFSSIGQSCHLDLPQIAVVGGQSAGKSSVLENFVGRDFLPRGSGIVTRRPLILQLIFSKTEHAEFLHCKSKKFTDFDEVRQEIEAETDRVTGTNKGISPVPINLRVYSPHVLNLTLIDLPGITKVPVGDQPPDIEYQIKDMILQFISRESSLILAVTPANMDLANSDALKLAKEVDPQGLRTIGVITKLDLMDEGTDARDVLENKLLPLRRGYIGVVNRSQKDIEGKKDIRAALAAERKFFLSHPAYRHMADRMGTPHLQKTLNQQLTNHIRESLPALRSKLQSQLLSLEKEVEEYKNFRPDDPTRKTKALLQMVQQFGVDFEKRIEGSGDQVDTLELSGGARINRIFHERFPFELVKMEFDEKDLRREISYAIKNIHGVRTGLFTPDLAFEAIVKKQVVKLKEPCLKCVDLVIQELINTVRQCTSKLSSYPRLREETERIVTTYIREREGRTKDQILLLIDIEQSYINTNHEDFIGFANAQQRSTQLNKKRAIPNQVIRRGWLTINNISLMKGGSKEYWFVLTAESLSWYKDEEEKEKKYMLPLDNLKIRDVEKGFMSNKHVFAIFNTEQRNVYKDLRQIELACDSQEDVDSWKASFLRAGVYPEKDQAENEDGAQENTFSMDPQLERQVETIRNLVDSYVAIINKSIRDLMPKTIMHLMINNTKAFIHHELLAYLYSSADQSSLMEESADQAQRRDDMLRMYHALKEALNIIGDISTSTVSTPVPPPVDDTWLQSASSHSPTPQRRPVSSIHPPGRPPAVRGPTPGPPLIPVPVGAAASFSAPPIPSRPGPQSVFANSDLFPAPPQIPSRPVRIPPGIPPGVPSRRPPAAPSRPTIIRPAEPSLLD
notes: dynamin 2 (DNM2), human, ubiquitous isoform; same variant of exon 10 as the M-DNM2 plasmid; No tag is stated for the pVL1392 constructs; also called WT Ub-DNM2

Series [1] addresses B2. The series is described as follows: pull-down; GST-SH3 of BIN1 (0.16, 0.4 or 1.6 ml supernatant) bound to GSH-Sepharose overnight, washed with 300 mM NaCl, 50 mM Tris pH 8.0, 5 mM imidazole, 1 mM DTT; 0.07 mg purified M-DNM2 or Ub-DNM2 added for 20 min, washed; resin loaded on SDS-PAGE. As to conditions: both partners purified.
Series [2] deals with the molecule itself. The experiment in a line: SEC-MALS; Superose 6 10/300 GL; 20 mM HEPES pH 7.4, 1.5 M NaCl, 1 mM EGTA, 1 mM DTT, 5% glycerol; 4 °C, 0.5 ml/min. A general note: SEC sorts molecules by how far they enter the pores of the column.

Take B1: the binding result in series [1] is “binds”. As for B2, the binding result in series [2] was “binds”.
